Results from patent US20210009703A1.

Molecular target: cynomolgus CD25 expressed on cells (Cynomolgus monkey) (UniProt H6WS54)
Assay: flow cytometry on cyno-CD25-CHO-S cells, 100 nM antibody, anti-human R-PE

MFI: 82
Substance: IgG1 Isotype (antibody)
